molecular target: T1, wildtype human α-synuclein (human, UniProt P37840 1-140); experiment: SPR (Biacore), antibody captured on anti-human IgG chip, alpha synuclein flowed over, 1:1 model, global fit
Protocol: An anti-human IgG CMS Biacore chip was prepared following the protocol supplied by GE Healthcare.
Data was collected and double reference subtracted to account for drift and a small amount of nonspecific binding. The data was analyzed using BIAcore evaluation software using a 1:1 model and a global fit.

| Binder | Kd | koff | kon |
| --- | --- | --- | --- |
| humanized 5C1 H4L3 (antibody, V domains shown, The human constant region is not specified; also called h5C1_H4L3) VH: QVQLVQSGAELKKPGSSVKVSCKASGYTFTNYWMNWVRQAPGQGLEWIGATNPNNGYTDYNQRFKDRATLTADKSTNTAYMELSSLRSEDTAVYYCASGGHLAYWGQGTLVTVSS VL: DVVMTQSPLSLSVSPGEPASISCRSSQSLFHSKGNTYLHWYLQKPGQSPQLLINRVSNRFSGVPDRFSGSGSGTDFTLKISRVEAEDVGVYFCSQSAHVPWTFGGGTKVEIK | 120 nM | 0.0051 s⁻¹ | – |
| murine 5C1 antibody (antibody, mouse IgG1, V domains shown, also called m5C1; mouse 5C1) VH: QVQLQQSGAELAKPGTSVQMSCKASGYTFTNYWMNWIKARPGQGLEWIGATNPNNGYTDYNQRFKDKAILTADKSSNTAYMHLSSLTSEDSAVYFCASGGHLAYWGQGTVVTVSA VL: DVVMTQIPLYLSVSPGDQASISCRSSQSLFHSKGNTYLHWYLQKPGQSPKLLINRVSNRFSGVPDRFSGSGSGTDFTLKISGVEAEDLGVYFCSQSAHVPWTFGGGTKLEIR | 68.7 nM | 0.0051 s⁻¹ | 75000 M⁻¹ s⁻¹ |
| chimeric 5C1 antibody (antibody, V domains shown, also called Ch5C1) VH: QVQLQQSGAELAKPGTSVQMSCKASGYTFTNYWMNWIKARPGQGLEWIGATNPNNGYTDYNQRFKDKAILTADKSSNTAYMHLSSLTSEDSAVYFCASGGHLAYWGQGTVVTVSA VL: DVVMTQIPLYLSVSPGDQASISCRSSQSLFHSKGNTYLHWYLQKPGQSPKLLINRVSNRFSGVPDRFSGSGSGTDFTLKISGVEAEDLGVYFCSQSAHVPWTFGGGTKLEIR | 86 nM | 0.0053 s⁻¹ | – |
| humanized 5C1 H3L4 (antibody, V domains shown, It was captured on an anti-human IgG chip, so it carries a human constant region, which is not specified; also called h5C1_H3L4) VH: QVQLVQSGAELKKPGSSVKVSCKASGYTFTNYWMNWVRQAPGQGLEWIGATNPNNGYTDYNQRFKDRATLTADKSTNTAYMELSSLRSEDTAVYFCASGGHLAYWGQGTLVTVSS VL: DIVMTQSPLSLSVSPGEPASISCRSSQSLFHSKGNTYLHWYLQKPGQSPQLLIYRVSNRFSGVPDRFSGSGSGTDFTLKISRVEAEDVGVYFCSQSAHVPWTFGGGTKVEIK | 1240 nM | – | – |
| humanized 5C1 H5L4 (antibody, V domains shown, The human constant region is not specified; also called h5C1_H5L4) VH: QVQLVQSGAELKKPGSSVKVSCKASGYTFTNYWMNWVRQAPGQGLEWIGATNPNNGYTDYNQRFKDRVTITADKSTNTAYMELSSLRSEDTAVYYCASGGHLAYWGQGTLVTVSS VL: DIVMTQSPLSLSVSPGEPASISCRSSQSLFHSKGNTYLHWYLQKPGQSPQLLIYRVSNRFSGVPDRFSGSGSGTDFTLKISRVEAEDVGVYFCSQSAHVPWTFGGGTKVEIK | 1060 nM | – | – |
| humanized 5C1 H5L3 (antibody, V domains shown, The human constant region is not specified; also called h5C1_H5L3) VH: QVQLVQSGAELKKPGSSVKVSCKASGYTFTNYWMNWVRQAPGQGLEWIGATNPNNGYTDYNQRFKDRVTITADKSTNTAYMELSSLRSEDTAVYYCASGGHLAYWGQGTLVTVSS VL: DVVMTQSPLSLSVSPGEPASISCRSSQSLFHSKGNTYLHWYLQKPGQSPQLLINRVSNRFSGVPDRFSGSGSGTDFTLKISRVEAEDVGVYFCSQSAHVPWTFGGGTKVEIK | 283 nM | – | – |
| humanized 5C1 H4L4 (antibody, V domains shown, The human constant region is not specified; also called h5C1_H4L4) VH: QVQLVQSGAELKKPGSSVKVSCKASGYTFTNYWMNWVRQAPGQGLEWIGATNPNNGYTDYNQRFKDRATLTADKSTNTAYMELSSLRSEDTAVYYCASGGHLAYWGQGTLVTVSS VL: DIVMTQSPLSLSVSPGEPASISCRSSQSLFHSKGNTYLHWYLQKPGQSPQLLIYRVSNRFSGVPDRFSGSGSGTDFTLKISRVEAEDVGVYFCSQSAHVPWTFGGGTKVEIK | 601 nM | – | – |

molecular target: T1, wildtype human α-synuclein; experiment: ELISA on α-synuclein, twofold dilution series of the antibody

| Binder | binding result |
| --- | --- |
| humanized 5C1 H1L1 (antibody, V domains shown, The constant region is not specified) VH: QVQLVQSGAELKKPGSSVKVSCKASGYTFTNYWMNWVRQAPGQGLEWIGATNPNNGYTDYNQRFKDRATLTADKSTNTAYMELSSLRSEDTAVYYCARGGHLAYWGQGTLVTVSS VL: DVVMTQSPLSLSVSPGEPASISCRSSQSLFHSKGNTYLHWYLQKPGQSPKLLINRVSNRFSGVPDRFSGSGSGTDFTLKISRVEAEDVGVYFCSQSAHVPWTFGGGTKVEIK | no binding (tested: 1000 (x axis has no unit)) |
| humanized 5C1 H3L3 (antibody, V domains shown, The constant region is not specified) VH: QVQLVQSGAELKKPGSSVKVSCKASGYTFTNYWMNWVRQAPGQGLEWIGATNPNNGYTDYNQRFKDRATLTADKSTNTAYMELSSLRSEDTAVYFCASGGHLAYWGQGTLVTVSS VL: DVVMTQSPLSLSVSPGEPASISCRSSQSLFHSKGNTYLHWYLQKPGQSPQLLINRVSNRFSGVPDRFSGSGSGTDFTLKISRVEAEDVGVYFCSQSAHVPWTFGGGTKVEIK | binds |
| humanized 5C1 H3L1 (antibody, V domains shown, The constant region is not specified) VH: QVQLVQSGAELKKPGSSVKVSCKASGYTFTNYWMNWVRQAPGQGLEWIGATNPNNGYTDYNQRFKDRATLTADKSTNTAYMELSSLRSEDTAVYFCASGGHLAYWGQGTLVTVSS VL: DVVMTQSPLSLSVSPGEPASISCRSSQSLFHSKGNTYLHWYLQKPGQSPKLLINRVSNRFSGVPDRFSGSGSGTDFTLKISRVEAEDVGVYFCSQSAHVPWTFGGGTKVEIK | binds |

From patent US20190315843A1 (PROTHENA BIOSCIENCES, published 2019)
